# Experimental data reported in patent US20210324099A1 (Chugai, published 2021).
# T1: hFcgRIIb (human, UniProt P31994 43-217)
# T1 construct: extracellular domain; also called human FcγRIIb
# T1 sequence (looked up): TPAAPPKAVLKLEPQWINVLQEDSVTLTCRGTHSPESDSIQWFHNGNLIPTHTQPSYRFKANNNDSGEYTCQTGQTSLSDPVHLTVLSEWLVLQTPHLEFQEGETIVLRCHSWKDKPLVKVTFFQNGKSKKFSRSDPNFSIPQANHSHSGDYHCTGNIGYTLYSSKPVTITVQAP
# T2: hFcgRIIaH (human, UniProt P12318 34-217)
# T2 construct: extracellular domain; also called human FcγRIIa type H (H131)
# T2 sequence (looked up): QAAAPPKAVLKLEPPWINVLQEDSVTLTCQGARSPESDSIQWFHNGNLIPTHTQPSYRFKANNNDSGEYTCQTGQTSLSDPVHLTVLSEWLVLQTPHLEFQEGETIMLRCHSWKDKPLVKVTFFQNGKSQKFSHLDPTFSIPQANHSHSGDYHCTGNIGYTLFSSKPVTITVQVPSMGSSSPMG
# T3: hFcgRIIaR (human, UniProt P12318 34-217)
# T3 construct: extracellular domain; also called human FcγRIIa type R (R131)
# T3 sequence (looked up): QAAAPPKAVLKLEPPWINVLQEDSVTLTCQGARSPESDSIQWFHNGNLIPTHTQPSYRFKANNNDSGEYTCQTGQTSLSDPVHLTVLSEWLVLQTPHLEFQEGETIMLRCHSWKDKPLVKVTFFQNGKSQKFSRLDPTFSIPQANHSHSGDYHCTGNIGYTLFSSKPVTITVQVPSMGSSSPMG
# What was measured:
# human FcRn = human FcRn (human, UniProt P55899 24-290; P61769 21-119, limits assumed); assay: SPR 25C pH 6.0, steady state;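 also: antibody captured on chip via anti-human Fab-lambda ligand, human FcRn injected as analyte in 50 mM phosphate buffer with 150 mM NaCl and P20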
# Experimental: Biacore T200 (GE Healthcare) was used to assess the binding activity to human FcRn. Measurement was performed at 25° C. using 50 mM phosphate, 150 mM NaCl, 0.05 w/v %-P20, pH 6.0 as buffer. […] About 400 RU of antibody was captured using a sensor chip immobilized with CaptureSelect™ Human Fab-lambda Kinetics Biotin Conjugate (Thermo Fisher Scientific) as a molecule for ligand capturing, followed by the binding of human FcRn diluted in measuring buffer. The activity of the respective antibodies to bind FcRn was assessed by calculating KD (mol/L) by the steady-state model using Biacore T200 Evaluation Software 2.0.
# hFcgRIIb [1] = biological target: T1, hFcgRIIb; assay: SPR 25C; relative to A375-G1T3/B167-Lamlib;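 also: SPR with antibody captured on an anti-human Fab-lambda chip, human FcγR analyte at 8 nM for FcγRIa or 1000 nM for the others, pH 7.4, FcγR RU per captured antibody unit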
# Experimental: (§1) Biacore T200 (GE Healthcare) was used to evaluate the binding activity to the respective human Fcγ receptor (hereafter referred to as FcγR). Measurement was performed at 25° C. using 50 mM phosphate, 150 mM NaCl, 0.05 w/v %-P20, pH 7.4 as buffer. About 1000 RU of antibody was captured using a sensor chip immobilized with CaptureSelect™ Human Fab-lambda Kinetics Biotin Conjugate (Thermo Fisher Scientific) as a molecule for ligand capturing. Human FcγR was diluted to 8 nM for FcγRIa and 1000 nM for other FcγR in the measurement buffer, and it was interacted to the captured antibody. The binding activity of each antibody to FcγR was assessed by calculating the binding amount of FcγR (RU) per unit amount of antibody using Biacore T200 Evaluation Software 2.0.
# hFcgRIa [2] = biological target: T4, hFcgRIa (human, UniProt P12314 16-292); assay: SPR 25C; relative to A375-G1T3/B167-Lamlib;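 also: SPR with antibody captured on an anti-human Fab-lambda chip, human FcγR analyte at 8 nM for FcγRIa or 1000 nM for the others, pH 7.4, FcγR RU per captured antibody unit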
# T4 construct: extracellular domain; also called human FcγRIa; FcγRI
# Experimental: as §1
# hFcgRIIIaV [3] = biological target: T5, hFcgRIIIaV (human, UniProt P08637 17-208); assay: SPR 25C; relative to A375-G1T3/B167-Lamlib;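 also: SPR with antibody captured on an anti-human Fab-lambda chip, human FcγR analyte at 8 nM for FcγRIa or 1000 nM for the others, pH 7.4, FcγR RU per captured antibody unit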
# T5 construct: extracellular domain; also called human FcγRIIIa allotype V158
# Experimental: as §1
# hFcgRIIIaF [4] = biological target: T6, hFcgRIIIaF (human, UniProt P08637 17-208); assay: SPR 25C; relative to A375-G1T3/B167-Lamlib;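 also: SPR with antibody captured on an anti-human Fab-lambda chip, human FcγR analyte at 8 nM for FcγRIa or 1000 nM for the others, pH 7.4, FcγR RU per captured antibody unit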
# T6 construct: extracellular domain; also called human FcγRIIIa allotype F158
# Experimental: as §1
# hFcgRIIaH [5] = biological target: T2, hFcgRIIaH; assay: SPR 25C; relative to A375-G1T3/B167-Lamlib
# Experimental: as §1
# hFcgRIIaR [6] = biological target: T3, hFcgRIIaR; assay: SPR 25C; relative to A375-G1T3/B167-Lamlib
# Experimental: as §1
# hFcgRIIb [7] = biological target: T1, hFcgRIIb; assay: SPR 25C
# hFcgRIa [8] = biological target: T4, hFcgRIa; assay: SPR 25C
# hFcgRIIIaV [9] = biological target: T5, hFcgRIIIaV; assay: SPR 25C
# hFcgRIIIaF [10] = biological target: T6, hFcgRIIIaF; assay: SPR 25C
# hFcgRIIaH [11] = biological target: T2, hFcgRIIaH; assay: SPR 25C
# hFcgRIIaR [12] = biological target: T3, hFcgRIIaR; assay: SPR 25C
# 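For binding per 1RU of antibody in this document: biacore SPR with antibody captured on an anti-human Fab lambda chip, human FcγR injected at 1000 nM (FcγRIa at 8 nM) in pH 7.4 phosphate buffer.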
# T6 sequence (P08637 17-208): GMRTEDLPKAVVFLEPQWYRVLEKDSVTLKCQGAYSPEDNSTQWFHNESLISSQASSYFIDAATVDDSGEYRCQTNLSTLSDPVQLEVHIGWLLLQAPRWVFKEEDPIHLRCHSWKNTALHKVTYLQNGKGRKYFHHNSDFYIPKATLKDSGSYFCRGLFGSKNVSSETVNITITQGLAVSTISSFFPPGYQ
# T4 sequence (P12314 16-292): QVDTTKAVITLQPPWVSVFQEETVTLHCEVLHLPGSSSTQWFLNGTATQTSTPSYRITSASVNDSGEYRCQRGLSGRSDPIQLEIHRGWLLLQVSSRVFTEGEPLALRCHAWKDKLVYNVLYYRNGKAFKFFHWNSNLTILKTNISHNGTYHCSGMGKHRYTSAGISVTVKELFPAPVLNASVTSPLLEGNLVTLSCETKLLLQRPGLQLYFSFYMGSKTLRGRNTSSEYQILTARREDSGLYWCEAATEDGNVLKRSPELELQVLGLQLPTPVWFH
# T5 sequence (P08637 17-208 F176V): as the sequence (P08637 17-208) above, with F160V counted along it
Binder,Kd (human FcRn) [nM],relative binding amount (hFcgRIIb [1]),relative binding amount (hFcgRIa [2]),relative binding amount (hFcgRIIIaV [3]),relative binding amount (hFcgRIIIaF [4]),relative binding amount (hFcgRIIaH [5]),relative binding amount (hFcgRIIaR [6]),binding per 1RU of antibody (hFcgRIIb [7]) [RU],binding per 1RU of antibody (hFcgRIa [8]) [RU],binding per 1RU of antibody (hFcgRIIIaV [9]) [RU],binding per 1RU of antibody (hFcgRIIIaF [10]) [RU],binding per 1RU of antibody (hFcgRIIaH [11]) [RU],binding per 1RU of antibody (hFcgRIIaR [12]) [RU]
"A375-SCF040/B167-Lamlib (antibody, human IgG1, lambda, copies: 2 + 2) heavy: EVQLVESGGGLVKPGGSLRLSCAASGFTFSTFTMNWVRQAPGKGLEWVSSISSKSTYIEYADSFKVRFTISRDNAKNSLYLQMNSLRAEDTAVYYCARYGAKNFLNWVFDYWGQGTLVTVSSASTKGPSVFPLAPSSKSTSGGTAALGCLVKDYFPEPVTVSWNSGALTSGVHTFPAVLQSSGLYSLSSVVTVPSSSLGTQTYICNVNHKPSNTKVDKKVEPKSCDKTHTCPPCPAPELWNGPSVFLFPPKPKDTLMISRTPEVTCVVVDVSDEDPEVKFNWYVDGVEVHNAKTKPREELYNSTYRVVSVLTVLHQDWLNGKEYKCKVSNTALPKPIEKTISKAKGQPREPQVYTLPPSREEMTKNQVSLTCLVKGFYPSDIAVEWESNGQPENNYKTTPPVLDSDGSFFLYSKLTVKKSRWQQGNVFSCSVMHEALHNHYTQKSLSLSP light: QSALTQPPSASGSPGQTVTISCTGTRYDVGYYEYVSWYQQHPGKAPKLMIYETSKRLSGVPDRFSGSKSGNTASLTVSGLQAEDEADYYCSSYRYEHQVSFGGGTKLTVLGQPKAAPSVTLFPPSSEELQANKATLVCLISDFYPGAVTVAWKADSSPVKAGVETTTPSKQSNNKYAASSYLSLTPEQWKSHRSYSCQVTHEGSTVEKTVAPTECS",1460,4.24,0.02,0.02,0.05,0.8,0.96,0.0465,0.0016,0.0013,0.001,0.0454,0.0446
"A375-SCF039/B167-Lamlib (antibody, human IgG1, lambda) heavy: EVQLVESGGGLVKPGGSLRLSCAASGFTFSTFTMNWVRQAPGKGLEWVSSISSKSTYIEYADSFKVRFTISRDNAKNSLYLQMNSLRAEDTAVYYCARYGAKNFLNWVFDYWGQGTLVTVSSASTKGPSVFPLAPSSKSTSGGTAALGCLVKDYFPEPVTVSWNSGALTSGVHTFPAVLQSSGLYSLSSVVTVPSSSLGTQTYICNVNHKPSNTKVDKKVEPKSCDKTHTCPPCPAPELWNGPSVFLFPPKPKDTLMISRTPEVTCVVVDVSDEDPEVKFNWYVDGVEVHNAKTKPREELYNSTYRVVSVLTVLHQDWLNGKEYKCKVSNTALPKPIEKTISKAKGQRREPQVYTLPPSREEMTKNQVSLTCLVKGFYPSDIAVEWESNGQPENNYKTTPPVLDSDGSFFLYSKLTVDKSRWQQGNVFSCSVMHEALHNHYTQKSLSLSP light: QSALTQPPSASGSPGQTVTISCTGTRYDVGYYEYVSWYQQHPGKAPKLMIYETSKRLSGVPDRFSGSKSGNTASLTVSGLQAEDEADYYCSSYRYEHQVSFGGGTKLTVLGQPKAAPSVTLFPPSSEELQANKATLVCLISDFYPGAVTVAWKADSSPVKAGVETTTPSKQSNNKYAASSYLSLTPEQWKSHRSYSCQVTHEGSTVEKTVAPTECS",1090,4.85,0.02,0.02,0.04,0.94,1.17,0.0531,0.0018,0.0013,0.0008,0.0535,0.0542
"A375-SCF039a/B167-Lamlib (antibody, human IgG1, lambda) heavy: EVQLVESGGGLVKPGGSLRLSCAASGFTFSTFTMNWVRQAPGKGLEWVSSISSKSTYIEYADSFKVRFTISRDNAKNSLYLQMNSLRAEDTAVYYCARYGAKNFLNWVFDYWGQGTLVTVSSASTKGPSVFPLAPSSKSTSGGTAALGCLVKDYFPEPVTVSWNSGALTSGVHTFPAVLQSSGLYSLSSVVTVPSSSLGTQTYICNVNHKPSNTKVDKRVEPKSCDKTHTCPPCPAPELWNGPSVFLFPPKPKDTLMISRTPEVTCVVVDVSDEDPEVKFNWYVDGVEVHNAKTKPREELYNSTYRVVSVLTVLHQDWLNGKEYKCKVSNTALPKPIEKTISKAKGQRREPQVYTLPPSREEMTKNQVSLTCLVKGFYPSDIAVEWESNGQPENNYKTTPPVLDSDGSFFLYSKLTVDKSRWQQGNVFSCSVMHEALHNHYTQKSLSLSP light: QSALTQPPSASGSPGQTVTISCTGTRYDVGYYEYVSWYQQHPGKAPKLMIYETSKRLSGVPDRFSGSKSGNTASLTVSGLQAEDEADYYCSSYRYEHQVSFGGGTKLTVLGQPKAAPSVTLFPPSSEELQANKATLVCLISDFYPGAVTVAWKADSSPVKAGVETTTPSKQSNNKYAASSYLSLTPEQWKSHRSYSCQVTHEGSTVEKTVAPTECS",1110,4.93,0.02,0.02,0.06,0.96,1.2,0.054,0.0018,0.0013,0.0012,0.0542,0.0554

# Now those with a lower Kd (human FcRn), led by results:
Kd (human FcRn) [nM],relative binding amount (hFcgRIIb [1]),relative binding amount (hFcgRIa [2]),relative binding amount (hFcgRIIIaV [3]),relative binding amount (hFcgRIIIaF [4]),relative binding amount (hFcgRIIaH [5]),relative binding amount (hFcgRIIaR [6]),binding per 1RU of antibody (hFcgRIIb [7]) [RU],binding per 1RU of antibody (hFcgRIa [8]) [RU],binding per 1RU of antibody (hFcgRIIIaV [9]) [RU],binding per 1RU of antibody (hFcgRIIIaF [10]) [RU],binding per 1RU of antibody (hFcgRIIaH [11]) [RU],binding per 1RU of antibody (hFcgRIIaR [12]) [RU],Binder
966,7.14,0.06,-0.01,-0.03,0.05,-0.01,0.0782,0.0049,-0.0007,-0.0007,0.003,-0.0004,"A375-SCF032/B167-Lamlib (antibody, human IgG1, lambda) heavy: EVQLVESGGGLVKPGGSLRLSCAASGFTFSTFTMNWVRQAPGKGLEWVSSISSKSTYIEYADSFKVRFTISRDNAKNSLYLQMNSLRAEDTAVYYCARYGAKNFLNWVFDYWGQGTLVTVSSASTKGPSVFPLAPSSKSTSGGTAALGCLVKDYFPEPVTVSWNSGALTSGVHTFPAVLQSSGLYSLSSVVTVPSSSLGTQTYICNVNHKPSNTKVDKKVEPKSCDKTHTCPPCPAPEYLGGDSVFLFPPKPKDVLMISRTPEVTCVVIDVSHEDPEVKFNWYVDGVEVHNAKTKPREEQYNSTYRVVSVLPVLHRDWLNGKEYKCKVSNKALPKPIEKTISKAKGQRREPQVYTLPPSREEMTKNQVSLTCLVKGFYPSDIAVEWESNGQPENNYKTTPPVLDSDGSFFLYSKLTVDKSRWQQGNVFSCSVMHEALHNHYTQKSLSLSP light: QSALTQPPSASGSPGQTVTISCTGTRYDVGYYEYVSWYQQHPGKAPKLMIYETSKRLSGVPDRFSGSKSGNTASLTVSGLQAEDEADYYCSSYRYEHQVSFGGGTKLTVLGQPKAAPSVTLFPPSSEELQANKATLVCLISDFYPGAVTVAWKADSSPVKAGVETTTPSKQSNNKYAASSYLSLTPEQWKSHRSYSCQVTHEGSTVEKTVAPTECS"
874,8.94,0.04,0,0,0.18,0.55,0.0979,0.0033,0.0002,0,0.0103,0.0255,"A375-SCF033/B167-Lamlib (antibody, human IgG1, lambda) heavy: EVQLVESGGGLVKPGGSLRLSCAASGFTFSTFTMNWVRQAPGKGLEWVSSISSKSTYIEYADSFKVRFTISRDNAKNSLYLQMNSLRAEDTAVYYCARYGAKNFLNWVFDYWGQGTLVTVSSASTKGPSVFPLAPSSKSTSGGTAALGCLVKDYFPEPVTVSWNSGALTSGVHTFPAVLQSSGLYSLSSVVTVPSSSLGTQTYICNVNHKPSNTKVDKKVEPKSCDKTHTCPPCPAPEYLGDDSVFLFPPKPKDVLMISRTPEVTCVVVDVSHEDPEVKFNWYVDGVEVHNAKTKPREEQYNSTYRVVSVLPVLHRDWLNGKEYKCKVSNKALPKPIEKTISKAKGQRREPQVYTLPPSREEMTKNQVSLTCLVKGFYPSDIAVEWESNGQPENNYKTTPPVLDSDGSFFLYSKLTVDKSRWQQGNVFSCSVMHEALHNHYTQKSLSLSP light: QSALTQPPSASGSPGQTVTISCTGTRYDVGYYEYVSWYQQHPGKAPKLMIYETSKRLSGVPDRFSGSKSGNTASLTVSGLQAEDEADYYCSSYRYEHQVSFGGGTKLTVLGQPKAAPSVTLFPPSSEELQANKATLVCLISDFYPGAVTVAWKADSSPVKAGVETTTPSKQSNNKYAASSYLSLTPEQWKSHRSYSCQVTHEGSTVEKTVAPTECS"
